Assay results reported in publication PMC10966104.

Legend:
[1] = biological target: baseplate hub gp15 of cyanophage A-1(L) (cyanophage A-1(L)); assay: cryo-EM structure; intact A-1(L) particles purified from infected Anabaena sp. PCC 7120, in SM buffer (50 mM Tris-HCl pH 7.5, 10 mM MgSO4, 100 mM NaCl); local reconstructions of portal, gp5-neck fiber, gp7-terminator, sheath-tube, baseplate and tail fibers
[2] = biological target: baseplate wedge protein gp32 of cyanophage A-1(L) (cyanophage A-1(L)); assay: as above
[3] = biological target: central spike gp25 of cyanophage A-1(L) (cyanophage A-1(L)); assay: as above
[4] = biological target: long tail fiber gp34 of cyanophage A-1(L) (cyanophage A-1(L)); assay: as above
[5] = biological target: neck fiber protein gp82 of cyanophage A-1(L), in the virion (cyanophage A-1(L)); assay: as above
[6] = biological target: neck protein gp5 of cyanophage A-1(L) (cyanophage A-1(L)); assay: as above
[7] = biological target: neck protein gp7 of cyanophage A-1(L) (cyanophage A-1(L)); assay: as above
[8] = biological target: portal protein gp2 of cyanophage A-1(L) (cyanophage A-1(L)); assay: as above
[9] = biological target: recombinant gp82 of the neck fiber gp82-gp81-gp80-His6 (cyanophage A-1(L)); assay: SEC-MALS; recombinant neck fiber gp82-gp81-gp80-His6, 1 mg/mL, 100 uL, Superdex 200 Increase 10/300 GL in binding buffer
[10] = biological target: recombinant gp80-His6 of the neck fiber (cyanophage A-1(L)); assay: as above
[11] = biological target: sheath initiator gp30 of cyanophage A-1(L) (cyanophage A-1(L)); assay: cryo-EM structure; intact A-1(L) particles purified from infected Anabaena sp. PCC 7120, in SM buffer (50 mM Tris-HCl pH 7.5, 10 mM MgSO4, 100 mM NaCl); local reconstructions of portal, gp5-neck fiber, gp7-terminator, sheath-tube, baseplate and tail fibers
[12] = biological target: short tail fiber gp33 of cyanophage A-1(L) (cyanophage A-1(L)); assay: as above
[13] = biological target: tail sheath protein gp9 of cyanophage A-1(L) (cyanophage A-1(L)); assay: as above
[14] = biological target: tail terminator gp8 of cyanophage A-1(L) (cyanophage A-1(L)); assay: as above
[15] = biological target: tail tube protein gp10 of cyanophage A-1(L) (cyanophage A-1(L)); assay: as above
[16] = biological target: tape measure protein gp13 of cyanophage A-1(L) (cyanophage A-1(L)); assay: as above
[17] = biological target: tube initiator gp18 of cyanophage A-1(L) (cyanophage A-1(L)); assay: as above

“baseplate hub gp15 of cyanophage A-1(L) (natural protein)” showed a stoichiometry N [1] of 3 subunits.
In the case of “baseplate wedge protein gp31 of cyanophage A-1(L) (natural protein)”, the stoichiometry N (gp31 per gp32) [2] is reported as 2.
Work on “central spike gp25 of cyanophage A-1(L) (natural protein)” yielded a stoichiometry N [3] of 3 subunits.
For “long tail fiber gp34 of cyanophage A-1(L) (natural protein)”, the stoichiometry N [4] was 3 subunits.
“neck fiber protein gp82 of cyanophage A-1(L), in the virion (natural protein)” was tested, and the stoichiometry N [5] was 3 subunits.
Work on “neck protein gp5 of cyanophage A-1(L) (natural protein)” yielded a stoichiometry N [6] of 15 subunits.
“neck protein gp7 of cyanophage A-1(L) (natural protein)” showed a stoichiometry N [7] of 6 subunits.
Substance “portal protein gp2 of cyanophage A-1(L) (natural protein)” has a stoichiometry N [8] of 12 subunits.
Work on “recombinant gp81 of the neck fiber (natural protein)” yielded a stoichiometry N (gp81 trimers per gp82 trimer) [9] of 14 and a stoichiometry N (gp81 trimers per gp80 trimer) [10] of 14.
Substance “sheath initiator gp30 of cyanophage A-1(L) (natural protein)” has a stoichiometry N [11] of 6 subunits.
For “short tail fiber gp33 of cyanophage A-1(L) (natural protein)”, the stoichiometry N [12] was 3 subunits.
With “tail sheath protein gp9 of cyanophage A-1(L) (natural protein)” the stoichiometry N (subunits in a ring) [13] was 6.
Work on “tail terminator gp8 of cyanophage A-1(L) (natural protein)” yielded a stoichiometry N [14] of 6 subunits.
In the case of “tail tube protein gp10 of cyanophage A-1(L) (natural protein)”, the stoichiometry N (subunits in a ring) [15] is reported as 6.
With “tape measure protein gp13 of cyanophage A-1(L) (natural protein)” the stoichiometry N [16] was 6.
Work on “tube initiator gp18 of cyanophage A-1(L) (natural protein)” yielded a stoichiometry N [17] of 6 subunits.
